Results reported in publication doi:10.1101/2025.03.24.644915.

Key:
[1] = target: VP6 protein, rotavirus SA11 clone C4111 (simian rotavirus A strain SA11 (clone C4111)); experiment: cryo-EM structure; purified NTR-TLP (made without trypsin, with leupeptin); single particle analysis with icosahedral symmetry, 3.40 Å; spike by localized reconstruction, 3D classification, optical flow (EnRICH) and LocSpiral
[2] = target: VP6 protein, rotavirus SA11 clone C4111 (simian rotavirus A strain SA11 (clone C4111)); experiment: cryo-EM structure; purified TR-TLP (made in the presence of trypsin); single particle analysis with icosahedral symmetry, 3.48 Å; spike by localized reconstruction, 3D classification, optical flow (EnRICH) and LocSpiral
[3] = target: VP7 glycoprotein, rotavirus SA11 clone C4111 (simian rotavirus A strain SA11 (clone C4111)); experiment: cryo-EM structure; purified NTR-TLP (made without trypsin, with leupeptin); single particle analysis with icosahedral symmetry, 3.40 Å; spike by localized reconstruction, 3D classification, optical flow (EnRICH) and LocSpiral
[4] = target: VP7 glycoprotein, rotavirus SA11 clone C4111 (simian rotavirus A strain SA11 (clone C4111)); experiment: cryo-EM structure; purified TR-TLP (made in the presence of trypsin); single particle analysis with icosahedral symmetry, 3.48 Å; spike by localized reconstruction, 3D classification, optical flow (EnRICH) and LocSpiral
[5] = target: VP4 spike protein, uncleaved (NTR spike), simian rotavirus A strain SA11 clone C4111 (simian rotavirus A strain SA11 (clone C4111)); experiment: cryo-EM structure; purified NTR-TLP (made without trypsin, with leupeptin); single particle analysis with icosahedral symmetry, 3.40 Å; spike by localized reconstruction, 3D classification, optical flow (EnRICH) and LocSpiral

VP6 protein, rotavirus SA11 clone C4111 (natural protein)
stoichiometry N [1]: 3 | stoichiometry N [2]: 3

VP7 glycoprotein, rotavirus SA11 clone C4111 (natural protein)
stoichiometry N [3]: 3 | stoichiometry N [4]: 3

VP4 spike protein, uncleaved (NTR spike), simian rotavirus A strain SA11 clone C4111 (natural protein)
stoichiometry N [5]: 3
